In patent US20190367631A1 (Regeneron, published 2019):
Read-outs that look alike come from different tables or passages of the source.

B1: H2aM21228N (antibody, mouse IgG2a, V domains shown)
VH: VQLVESGGGLVQPGGSLRLSCAASGFTFSDHYMDWVRQAPGKGLEWVGRTRNKANSHTTEYAASVSGRFTISRDDSKNSLYLQMNSLKTEDTAVYYCTRAGIIGTLFDYWGQGTLVTVSS
VL: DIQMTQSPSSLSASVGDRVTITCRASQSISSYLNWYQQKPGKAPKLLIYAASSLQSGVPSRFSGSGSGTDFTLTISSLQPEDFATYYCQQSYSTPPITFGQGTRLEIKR
notes: Human variable domains with mouse IgG2a Fc
B2: H2aM21229N (antibody, mouse IgG2a, V domains shown)
VH: EVQLVESGGGLVKPGGSLRLSCAASGFTFSRYSMNWVRQAPGKGLEWVSSISSSSSYIYYGDTVKGRFTISRDNAKKSLYLQMNSLRAEDTAVYYCVRDRGQLVLYFDYWGQGTLVTVSS
VL: DIQMTQSPASLSTSIRDRVTITCRASLSISSFLNWFQQRPGKAPKLLIYVASNLQSGVPSRFSDSGSGTDFTLTISSLQPEDFATYYCQQNYSTPPITFGQGTRLEIK
notes: as for B1
B3: H1xH29282P2 (antibody, V domains shown)
VH: EVQLVESGGGLVQPGGSLRLSCAASGFTFSTYAMSWVRQAPGKGLEWVSTISGRSDITYFADSVKGRFTVSRDNSKTTLYLQMNSLRAEDTAVYYCATDDDLPLDYWGQGTLVTVSS
VL: not shown
B4: H1H21234N-N297Q (antibody, V domains shown)
VH: QVQLQESGPGLVKPSETLSLTCTVTGGSISRNYWSWIRQPPGKGLEWIGYIYYSGSIDYNPSLKSRVTISVDTSKNQFSLKLSSMTAADTAVYYCARDRWNWKYGMDVWGQGTTVIVSS
VL: EIVLTQSPGTLSLSPGERATLSCRASQTVRNNYLAWYHQKPGQAPRLLIYGASSRATGIPDRFSGSGSGTDFTLTISRLEPEDFTVYYCHQYGNSPWTFGQGTKMEIKR
notes: Human IgG1 Fc with N297Q (EU numbering)
B5: H1H21234N-N297Q (antibody, human IgG1, V domains shown)
VH: QVQLQESGPGLVKPSETLSLTCTVTGGSISRNYWSWIRQPPGKGLEWIGYIYYSGSIDYNPSLKSRVTISVDTSKNQFSLKLSSMTAADTAVYYCARDRWNWKYGMDVWGQGTTVIVSS
VL: EIVLTQSPGTLSLSPGERATLSCRASQTVRNNYLAWYHQKPGQAPRLLIYGASSRATGIPDRFSGSGSGTDFTLTISRLEPEDFTVYYCHQYGNSPWTFGQGTKMEIKR
notes: human IgG1 Fc with N297Q (EU); also called H1H21234-N297Q
B6: H1H21234N-N297Q-LP3 (antibody, human IgG1, V domains shown)
VH: QVQLQESGPGLVKPSETLSLTCTVTGGSISRNYWSWIRQPPGKGLEWIGYIYYSGSIDYNPSLKSRVTISVDTSKNQFSLKLSSMTAADTAVYYCARDRWNWKYGMDVWGQGTTVIVSS
VL: EIVLTQSPGTLSLSPGERATLSCRASQTVRNNYLAWYHQKPGQAPRLLIYGASSRATGIPDRFSGSGSGTDFTLTISRLEPEDFTVYYCHQYGNSPWTFGQGTKMEIKR
modifications: steroid linker-payload LP3 clicked to azido-PEG3-amine on Q295 and Q297 (EU) of the heavy chain constant region
notes: antibody-drug conjugate; human IgG1 Fc with N297Q (EU); also called H1H21234N-LP3
B7: H1H21234N-N297Q-LP13 (antibody, human IgG1, V domains shown)
VH: QVQLQESGPGLVKPSETLSLTCTVTGGSISRNYWSWIRQPPGKGLEWIGYIYYSGSIDYNPSLKSRVTISVDTSKNQFSLKLSSMTAADTAVYYCARDRWNWKYGMDVWGQGTTVIVSS
VL: EIVLTQSPGTLSLSPGERATLSCRASQTVRNNYLAWYHQKPGQAPRLLIYGASSRATGIPDRFSGSGSGTDFTLTISRLEPEDFTVYYCHQYGNSPWTFGQGTKMEIKR
modifications: steroid linker-payload LP13 clicked to azido-PEG3-amine on Q295 and Q297 (EU) of the heavy chain constant region
notes: antibody-drug conjugate; human IgG1 Fc with N297Q (EU); also called H1H21234N-LP13
B8: H1H21234N (antibody, V domains shown)
VH: QVQLQESGPGLVKPSETLSLTCTVTGGSISRNYWSWIRQPPGKGLEWIGYIYYSGSIDYNPSLKSRVTISVDTSKNQFSLKLSSMTAADTAVYYCARDRWNWKYGMDVWGQGTTVIVSS
VL: EIVLTQSPGTLSLSPGERATLSCRASQTVRNNYLAWYHQKPGQAPRLLIYGASSRATGIPDRFSGSGSGTDFTLTISRLEPEDFTVYYCHQYGNSPWTFGQGTKMEIKR
notes: Original human IgG1 Fc
B9: H2aM25695N (antibody, mouse IgG2a, V domains shown)
VH: QVQLQESGPGLVKPSETLSLTCTVTGGSISRNYWSWIRQPPGKGLEWIGYIYYSGSINYNPSLKSRVTISVDMSKNQFSLKLNSVTAADTAVYYCARDRWNWKYGMDVWGQGTTVIVSS
VL: EIVLTQSPGTLSLSPGERATLSCRASQTVRNSYLAWYHQKPGQAPRLLIYGASSRATGIPDRFSGSGSGTDFTLTISRLEPEDFAVYYCQQYGSSYWTFGQGTKMEIKR
notes: as for B1
B10: H2aM21235N (antibody, mouse IgG2a, V domains shown)
VH: EVQLVESGGGLVQPGGSLRLSCAASGFTFSDHYMDWVRQAPGKGLEWVGRTRNKANSYTTEYAASVSGRFTISRDDSKNSLYLQMNSLKTEDTAVYYCTRAGIIGTLFDYWGQGTLVTVSS
VL: DIQMTQSPSSLSASVGDRVTITCRASQIIGRYLNWFQQKPGKVPKLLIYAASSLQRGVPSRFSGSGSGTDFTLTISSLQPEDFATYYCQQSYNTPPITFGQGTRLEIKR
notes: as for B1

Assays:
[1] = biological target: T1, human MSR1 extracellular domain expressed with a N-terminal nonahistidine tag (human, UniProt P21757 77-451); assay: competition ELISA, plate-coated His9-hMSR1; 100 nM antibody, competitor ligand Ac-LDL
T1 construct: extracellular domain; also called His9-hMSR1; His-hMSR1
T1 sequence: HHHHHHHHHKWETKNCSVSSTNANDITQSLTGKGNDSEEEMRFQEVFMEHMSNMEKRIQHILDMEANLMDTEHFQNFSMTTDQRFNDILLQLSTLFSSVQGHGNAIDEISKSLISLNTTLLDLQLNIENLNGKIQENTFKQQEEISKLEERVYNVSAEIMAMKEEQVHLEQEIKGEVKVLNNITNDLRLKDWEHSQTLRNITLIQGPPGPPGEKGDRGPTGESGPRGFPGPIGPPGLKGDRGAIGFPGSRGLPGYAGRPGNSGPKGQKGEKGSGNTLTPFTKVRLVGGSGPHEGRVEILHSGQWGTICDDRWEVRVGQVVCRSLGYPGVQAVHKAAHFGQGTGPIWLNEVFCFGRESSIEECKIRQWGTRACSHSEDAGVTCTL
Experimental: (§1) Buffer alone was also added to wells on each coat. […] This assay was conducted in four different assay runs.
(§2) Data analysis was performed using a sigmoidal dose-response model within Prism™ software (GraphPad).

[2] = biological target: T1, human MSR1 extracellular domain …; assay: competition ELISA, plate-coated His9-hMSR1; 500 nM antibody, competitor ligand 5 nM Ox-LDL
Experimental: as §1, §2

[3] = biological target: T1, human MSR1 extracellular domain …; assay: competition ELISA, plate-coated His9-hMSR1; 300 nM antibody, competitor ligand biot-AGE-BSA
Experimental: as §1, §2

[4] = biological target: T2, full length human MSR1 with a C-terminal Myc tag, on HEK293.Myc.hMSR1 cells (human, UniProt P21757 1-451); assay: ECL cell binding, HEK293.Myc.hMSR1 cells, 11 nM
T2 construct: whole, on cells; stably expressed on engineered HEK293 cells; not shown: C-terminal Myc tag
T2 sequence (looked up): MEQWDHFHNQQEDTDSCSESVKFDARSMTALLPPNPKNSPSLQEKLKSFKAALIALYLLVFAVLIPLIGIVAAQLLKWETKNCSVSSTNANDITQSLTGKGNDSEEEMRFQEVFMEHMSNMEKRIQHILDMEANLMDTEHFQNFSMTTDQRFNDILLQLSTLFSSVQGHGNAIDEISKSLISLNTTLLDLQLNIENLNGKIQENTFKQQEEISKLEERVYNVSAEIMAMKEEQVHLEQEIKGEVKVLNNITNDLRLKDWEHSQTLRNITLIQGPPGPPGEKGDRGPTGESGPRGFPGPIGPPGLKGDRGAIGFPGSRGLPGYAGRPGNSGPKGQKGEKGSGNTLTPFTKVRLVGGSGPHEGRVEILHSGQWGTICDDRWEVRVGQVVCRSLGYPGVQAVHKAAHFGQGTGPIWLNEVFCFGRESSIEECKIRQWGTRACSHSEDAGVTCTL

[5] = biological target: T3, full length monkey MSR1 on HEK293.mfMSR1 cells (Macaca fascicularis, UniProt A0A2K5UWE2 1-451); assay: ECL cell binding, HEK293.mfMSR1 cells, 11 nM
T3 construct: whole, on cells
T3 sequence: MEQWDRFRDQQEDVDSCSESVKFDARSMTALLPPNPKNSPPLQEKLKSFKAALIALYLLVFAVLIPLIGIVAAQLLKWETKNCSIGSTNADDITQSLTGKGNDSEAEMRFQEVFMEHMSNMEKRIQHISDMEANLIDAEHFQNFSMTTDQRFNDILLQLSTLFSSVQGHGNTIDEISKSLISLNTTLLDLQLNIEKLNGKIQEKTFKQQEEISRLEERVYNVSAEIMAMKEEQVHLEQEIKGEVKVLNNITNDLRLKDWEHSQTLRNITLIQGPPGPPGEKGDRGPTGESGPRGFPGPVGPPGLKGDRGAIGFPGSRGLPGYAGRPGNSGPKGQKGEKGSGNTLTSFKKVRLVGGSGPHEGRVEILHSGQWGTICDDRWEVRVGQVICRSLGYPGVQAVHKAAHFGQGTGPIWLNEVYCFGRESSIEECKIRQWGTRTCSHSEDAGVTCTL
Experimental: All cells were washed once with 1×PBS with Ca²⁺/Mg²⁺ and counted with a Cellometer™ Auto T4 cell counter (Nexcelom Bioscience). Approximately 1.0×10⁴ cells were seeded separately onto 96-well carbon electrode plates [MULTI-ARRAY high bind plate, Meso Scale Diagnostics] and incubated for 1 hour at 37° C. Non-specific binding sites were then blocked by 2% BSA (w/v) in PBS with Ca²⁺/Mg²⁺ for 1 hour at room temperature. THP-1 cells were pre-incubated for 0.5 hours at room temperature in sample dilution buffer with: 1) 1 mg/mL Fc receptor block reagents to block Fc gamma receptors on THP-1 cell surface [whole molecule human IgG (Jackson Immunoresearch, Cat #009-000-003) for wells being tested with anti-MSR1-mFc antibodies or 2) whole molecule mlgG (Jackson Immunoresearch, Cat #015-000-003) for wells being tested with anti-MSR1-hFc antibodies. Antibody binding on HEK293.Myc.hMSR1, HEK293.mfMSR1 and HEK293 cells was tested without Fc receptor block reagents. […] Plates were then washed to remove unbound antibodies an AquaMax2000 plate washer with a cell washing head (MDS Analytical Technologies). […] Plates were washed and developed with Read Buffer (Meso Scale Diagnostics, Cat # R92TD-2) according to manufacturer's recommended procedure and luminescent signals were recorded with a SECTOR Imager 600 (Meso Scale Diagnostics). Luminescence intensity, measured in relative light units (RLU), was recorded to indicate the binding intensity of each antibody at the range of concentrations.

[6] = biological target: T3, full length monkey MSR1 on …; assay: ECL cell binding, HEK293.mfMSR1 cells; section head of Table 10
[7] = biological target: T1, human MSR1 extracellular domain …; assay: competition ELISA, plate-coated His9-hMSR1; 500 nM antibody, competitor ligand 10 nM Ox-LDL
Experimental: as §1, §2

[8] = biological target: T4, human MSR1 extracellular domain expressed with a N-terminal nonahistidine tag (His9-hMSR1); R&D Systems, Cat … (human, UniProt P21757 77-451); assay: SPR Biacore T200, 25 C, antibody captured by anti-human Fc, His9-hMSR1 injected; no dissociation seen, kd fixed at 1.00E-05
T4 construct: extracellular domain; Bought reagent; also called His-hMSR1; 9xHis-hMSR1
T4 sequence: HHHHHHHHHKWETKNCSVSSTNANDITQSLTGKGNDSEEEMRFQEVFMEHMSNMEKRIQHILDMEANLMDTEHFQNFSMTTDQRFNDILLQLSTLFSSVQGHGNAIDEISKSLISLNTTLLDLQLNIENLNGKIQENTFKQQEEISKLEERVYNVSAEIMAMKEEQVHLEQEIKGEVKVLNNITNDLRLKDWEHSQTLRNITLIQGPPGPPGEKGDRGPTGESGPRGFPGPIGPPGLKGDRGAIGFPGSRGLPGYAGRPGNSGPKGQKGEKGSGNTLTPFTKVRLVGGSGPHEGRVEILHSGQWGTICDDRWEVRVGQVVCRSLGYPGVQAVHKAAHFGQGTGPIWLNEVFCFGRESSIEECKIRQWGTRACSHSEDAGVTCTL
Experimental: (§3) All binding studies were performed in 10 mM HEPES, 300 mM NaCl, 3 mM EDTA, and 0.05% v/v Surfactant Tween-20, pH 7.4 (HBS-ET) running buffer at 25° C.
(§4) The association rate (kₐ) and dissociation rate (kd) were determined by fitting the real-time binding sensorgrams to a 1:1 binding model with mass transport limitation using Scrubber 2.0c curve-fitting software. Binding dissociation equilibrium constant (KD) and dissociative half-life (t½) were calculated from the kinetic rates as:

[9] = biological target: T4, human MSR1 extracellular domain …; assay: SPR Biacore T200, 25 C, antibody captured by anti-human Fc, His9-hMSR1 injected
Experimental: as §3, §4

[10] = biological target: T4, human MSR1 extracellular domain …; assay: SPR Biacore T200, 25 C, antibody captured by anti-human Fc, His9-hMSR1 injected; no dissociation seen, kd fixed at 1.00E-05; remark: listed apart in the source
Experimental: as §3, §4

[11] = biological target: T4, human MSR1 extracellular domain …; assay: SPR Biacore T200, 25 C, antibody captured by anti-human Fc, His9-hMSR1 injected; remark: listed apart in the source

Row | Binder | % Blocking [1] | % Blocking [2] | % Blocking [3] | % Blocking [7] | kon [9] | Kd [10] | koff [10] | t½ [10] | also measured
1 | B1 | -32% | 41% | -1% |  |  |  |  |  | 
2 | B2 | -11% | 38% | 3% |  |  |  |  |  | 
3 | B3 |  |  |  |  |  |  |  |  | ratio of binding signal (RLU) to isotype control [4]: 9 fold; ratio of binding signal (RLU) to isotype control [5]: 1 fold; binding result [6]: no binding (tested: 11 nM)
4 | B4 | 75% |  | -27% | 49% |  |  |  |  | 
5 | B5 |  |  |  |  | 300000 M⁻¹ s⁻¹ | ≤ 0.0333 nM | ≤ 1e-05 s⁻¹ | ≥ 19.3 h | Kd [8]: ≤ 0.0454 nM; koff [8]: ≤ 1e-05 s⁻¹; t½ [8]: ≥ 19.3 h; kon [11]: 220000 M⁻¹ s⁻¹
6 | B6 |  |  |  |  | 417000 M⁻¹ s⁻¹ | ≤ 0.024 nM | ≤ 1e-05 s⁻¹ | ≥ 19.3 h | 
7 | B7 |  |  |  |  | 400000 M⁻¹ s⁻¹ | ≤ 0.025 nM | ≤ 1e-05 s⁻¹ | ≥ 19.3 h | 
8 | B8 | 70% |  | 21% | 98% |  |  |  |  | 
9 | B9 | 65% |  | 16% | 96% |  |  |  |  | 
10 | B10 | 24% | -4% | -24% |  |  |  |  |  | 
